Results published in patent US20230227537A1.
“And” between values parts separate entries of the source, which are not always exact repeats. Equal entries are not always repeated.

Experiments:
[1] = biological target: RaTG13 RBD displayed on S. cerevisiae (bat coronavirus RaTG13); test: flow cytometry, S. cerevisiae displaying the RBD, AF633 anti-human IgG [RaTG13]
[2] = biological target: SARS-Cov-1 RBD displayed on S. cerevisiae
[3] = biological target: GD-Pangolin RBD displayed on S. cerevisiae (GD-Pangolin coronavirus)
[4] = biological target: WIV1 RBD displayed on S. cerevisiae (WIV1 (bat sarbecovirus)); test: flow cytometry, S. cerevisiae displaying the RBD, AF633 anti-human IgG [WIV1]
[5] = biological target: LYRa11 RBD displayed on S. cerevisiae (bat SARS-related coronavirus LYRa11); test: flow cytometry, S. cerevisiae displaying the RBD, AF633 anti-human IgG [LYRa11]
[6] = biological target: WIV1-CoV RBD (WIV1-CoV (bat))
[7] = biological target: WIV1-CoV RBD (WIV1-CoV (bat)); test: SPR, His-tagged VHH on NTA chip, RBD as analyte
[8] = biological target: Mouse IgG1 Fc fused SARS-CoV-2 RBD (Sino Biological) (SARS-CoV-2; mouse) (UniProt P0DTC2)

S309 antibody
EC50 (read off the curve) [1]: 0.8 µg/mL | EC50 (read off the curve) [2]: 0.5 µg/mL | EC50 (read off the curve) [3]: 1 µg/mL | EC50 (read off the curve) [4]: 0.7 µg/mL | EC50 (read off the curve) [5]: 0.8 µg/mL

SARS VHH-72
koff [6]: 0.0026 s⁻¹ | kon [6]: 349000 M⁻¹ s⁻¹ | Kd [7]: 7.47 nM

VHH72-W52aH-hIgG1 Fc (P. pastoris supernatant) (Fc fusion)
% Signal decrease over 8 min dissociation [8]: 49% and 51% | Kd [8]: 120 nM and 92.2 nM
